Molecular target: T1, SFB-TBC1D31 (human, UniProt Q96DN5-1 1-1066)
T1 construct: In the SFB pull-down it was left on the streptavidin beads; in the GST pull-down it was eluted with biotin; source: HEK293T, transfected, purified (streptavidin-conjugated beads, eluted with biotin)
T1 sequence (looked up): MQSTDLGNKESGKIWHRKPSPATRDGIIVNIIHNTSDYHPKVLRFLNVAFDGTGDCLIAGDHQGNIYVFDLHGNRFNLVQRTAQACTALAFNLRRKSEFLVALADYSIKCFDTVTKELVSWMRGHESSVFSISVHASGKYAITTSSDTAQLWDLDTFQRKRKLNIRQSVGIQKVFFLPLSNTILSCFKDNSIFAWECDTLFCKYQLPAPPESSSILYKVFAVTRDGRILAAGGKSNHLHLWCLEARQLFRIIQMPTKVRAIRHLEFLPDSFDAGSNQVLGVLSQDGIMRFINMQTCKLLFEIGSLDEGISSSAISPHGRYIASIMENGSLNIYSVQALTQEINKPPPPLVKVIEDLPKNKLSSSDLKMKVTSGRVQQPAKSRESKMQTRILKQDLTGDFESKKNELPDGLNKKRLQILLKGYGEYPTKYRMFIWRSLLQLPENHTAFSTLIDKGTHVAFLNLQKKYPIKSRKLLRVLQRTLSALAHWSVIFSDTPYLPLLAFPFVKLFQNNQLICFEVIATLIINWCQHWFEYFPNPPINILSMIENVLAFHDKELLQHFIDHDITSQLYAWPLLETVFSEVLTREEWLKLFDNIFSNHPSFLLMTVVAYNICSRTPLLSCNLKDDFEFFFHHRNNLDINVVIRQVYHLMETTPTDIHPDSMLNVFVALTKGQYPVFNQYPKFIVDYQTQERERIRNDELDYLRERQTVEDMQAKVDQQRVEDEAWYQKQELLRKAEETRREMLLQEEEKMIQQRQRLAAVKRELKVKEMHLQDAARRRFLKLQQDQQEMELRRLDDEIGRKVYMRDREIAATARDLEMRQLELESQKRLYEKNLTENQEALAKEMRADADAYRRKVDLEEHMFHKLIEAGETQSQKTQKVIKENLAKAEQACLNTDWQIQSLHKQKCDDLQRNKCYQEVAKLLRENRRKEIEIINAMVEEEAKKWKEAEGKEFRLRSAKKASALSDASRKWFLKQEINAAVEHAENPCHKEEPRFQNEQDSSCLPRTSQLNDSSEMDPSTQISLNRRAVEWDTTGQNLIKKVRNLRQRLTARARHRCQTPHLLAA
Experiment: pull-down; GST pull-down in vitro: GST-Rab22A on Glutathione-Sepharose incubated with eluted SFB-TBC1D31 in NETN buffer, 3 h, 4 °C; detection by Flag antibody
Conditions: both partners purified

- binding result: binds
B1: GST-Rab22A (natural protein, human, UniProt Q9UL26 1-194, looked up)
chain: MALRELKVCLLGDTGVGKSSIVWRFVEDSFDPNINPTIGASFMTKTVQYQNELHKFLIWDTAGQERFRALAPMYYRGSAAAIIVYDITKEETFSTLKNWVKELRQHGPPNIVVAIAGNKCDLIDVREVMERDAKDYADSIHAIFVETSAKNAININELFIEISRRIPSTDANLPSGGKGFKLRRQPSEPKRSCC
notes: On glutathione beads in the GST pull-down; eluted with reduced glutathione for the SFB pull-down; source: E. coli BL21, purified (Glutathione-Sepharose)

From PMC11516053, “Genomic Amplification of TBC1D31 Promotes Hepatocellular Carcinoma Through Reducing the Rab22A‐Mediated Endolysosomal Trafficking and Degradation of EGFR” (Advanced Science, 2024)
